Several values for one entry are separate records, joined by “and”; a condition that tells them apart may be missing. Identical values can stand only once.
Experiments:
[1] = molecular target: single-chain mouse IL-27 (FLAG tag, mouse EBI3, 17 amino acid linker, mouse IL-27 p28) (mouse) (UniProt O35228); assay: SPR, BIACORE 3000; receptor amine-coupled to the chip, ligand (A1426F) injected; 1:1 model with mass transport
[2] = molecular target: single-chain human IL-27 (amino-terminal peptide tag, EBI3, polypeptide linker, IL-27 p28) (human) (UniProt Q14213); assay: SPR, BIACORE 3000; receptor amine-coupled to the chip, ligand (A1534F) injected; 1:1 model with mass transport
[3] = molecular target: single-chain human IL-27 (amino-terminal peptide tag, EBI3, polypeptide linker, IL-27 p28) (human) (UniProt Q14213); assay: cell-based or functional assay
[4] = molecular target: single-chain mouse IL-27 (FLAG tag, mouse EBI3, 17 amino acid linker, mouse IL-27 p28) (mouse) (UniProt O35228); assay: cell-based or functional assay
[5] = molecular target: single-chain mouse IL-27 (FLAG tag, mouse EBI3, 17 amino acid linker, mouse IL-27 p28) (mouse) (UniProt O35228); assay: SPR, BIACORE 3000; receptor captured by anti-mouse Fc antibody, ligand (lot A1418F) injected; 1:1 model with mass transport
[6] = molecular target: IL-27 receptor on mouse spleen cells (mouse) (UniProt O70394); assay: cell-based or functional assay
Sequence of IL-27 receptor on mouse spleen cells (mouse) (O70394 25-623, chain 1 of 2): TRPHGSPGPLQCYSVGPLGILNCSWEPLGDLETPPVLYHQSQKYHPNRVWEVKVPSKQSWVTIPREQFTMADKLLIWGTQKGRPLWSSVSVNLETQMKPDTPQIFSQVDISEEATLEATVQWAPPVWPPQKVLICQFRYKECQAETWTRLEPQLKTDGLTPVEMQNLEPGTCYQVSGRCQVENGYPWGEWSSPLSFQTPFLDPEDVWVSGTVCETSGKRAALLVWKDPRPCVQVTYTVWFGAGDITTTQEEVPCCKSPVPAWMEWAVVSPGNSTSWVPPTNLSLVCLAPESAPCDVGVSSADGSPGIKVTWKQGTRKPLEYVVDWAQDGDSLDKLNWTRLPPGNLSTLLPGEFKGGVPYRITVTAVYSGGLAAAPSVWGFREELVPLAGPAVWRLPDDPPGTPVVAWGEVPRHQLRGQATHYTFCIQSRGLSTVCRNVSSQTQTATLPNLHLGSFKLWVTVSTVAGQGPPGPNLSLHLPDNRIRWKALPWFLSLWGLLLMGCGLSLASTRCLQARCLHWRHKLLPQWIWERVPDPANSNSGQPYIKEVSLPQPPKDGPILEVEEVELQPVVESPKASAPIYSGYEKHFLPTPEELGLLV
Sequence of IL-27 receptor on mouse spleen cells (mouse) (Q00560 23-917, chain 2 of 2, further chain): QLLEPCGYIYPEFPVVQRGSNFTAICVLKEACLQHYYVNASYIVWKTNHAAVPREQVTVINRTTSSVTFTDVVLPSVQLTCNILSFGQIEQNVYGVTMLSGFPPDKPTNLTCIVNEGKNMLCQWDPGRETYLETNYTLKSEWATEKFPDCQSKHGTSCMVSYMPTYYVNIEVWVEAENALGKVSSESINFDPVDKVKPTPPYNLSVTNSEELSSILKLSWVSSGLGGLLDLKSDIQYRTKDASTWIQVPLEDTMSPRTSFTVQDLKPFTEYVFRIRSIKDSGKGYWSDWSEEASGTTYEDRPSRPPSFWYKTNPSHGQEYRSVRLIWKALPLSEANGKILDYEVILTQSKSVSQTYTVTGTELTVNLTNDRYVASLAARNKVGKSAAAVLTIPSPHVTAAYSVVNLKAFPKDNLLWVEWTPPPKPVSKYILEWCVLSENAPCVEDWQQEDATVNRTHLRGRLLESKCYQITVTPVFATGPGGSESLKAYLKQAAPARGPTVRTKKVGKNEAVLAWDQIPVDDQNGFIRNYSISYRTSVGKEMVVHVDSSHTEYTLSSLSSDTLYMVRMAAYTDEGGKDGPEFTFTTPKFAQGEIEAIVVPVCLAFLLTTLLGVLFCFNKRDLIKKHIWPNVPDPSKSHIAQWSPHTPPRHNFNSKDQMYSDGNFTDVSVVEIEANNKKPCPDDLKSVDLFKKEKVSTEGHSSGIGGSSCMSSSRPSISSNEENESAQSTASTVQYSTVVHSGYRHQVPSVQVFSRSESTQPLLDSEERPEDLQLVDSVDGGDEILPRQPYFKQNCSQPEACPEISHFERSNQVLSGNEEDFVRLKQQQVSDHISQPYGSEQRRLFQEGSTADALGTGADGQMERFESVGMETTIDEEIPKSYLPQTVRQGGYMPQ

[7] = molecular target: IL-27 receptor on total human PBMCs (human) (UniProt Q6UWB1); assay: cell-based or functional assay
Sequence of IL-27 receptor on total human PBMCs (human) (Q6UWB1 33-636, chain 1 of 2): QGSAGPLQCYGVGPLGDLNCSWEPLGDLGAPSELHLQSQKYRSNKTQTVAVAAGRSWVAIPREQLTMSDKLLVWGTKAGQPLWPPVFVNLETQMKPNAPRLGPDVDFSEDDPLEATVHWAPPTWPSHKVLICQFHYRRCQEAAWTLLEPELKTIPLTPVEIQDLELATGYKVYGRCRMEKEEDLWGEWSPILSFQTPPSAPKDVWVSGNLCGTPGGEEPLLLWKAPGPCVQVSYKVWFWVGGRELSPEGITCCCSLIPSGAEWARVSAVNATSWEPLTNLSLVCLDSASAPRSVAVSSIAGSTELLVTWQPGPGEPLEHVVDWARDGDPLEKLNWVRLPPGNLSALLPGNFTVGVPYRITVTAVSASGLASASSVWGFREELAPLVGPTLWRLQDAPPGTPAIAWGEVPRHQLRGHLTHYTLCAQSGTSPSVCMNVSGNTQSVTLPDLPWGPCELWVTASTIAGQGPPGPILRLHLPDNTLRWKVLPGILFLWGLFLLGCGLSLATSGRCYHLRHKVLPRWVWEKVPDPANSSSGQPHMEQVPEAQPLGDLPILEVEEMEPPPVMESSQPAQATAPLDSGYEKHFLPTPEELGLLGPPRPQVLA
Sequence of IL-27 receptor on total human PBMCs (human) (P40189 23-918, chain 2 of 2, further chain): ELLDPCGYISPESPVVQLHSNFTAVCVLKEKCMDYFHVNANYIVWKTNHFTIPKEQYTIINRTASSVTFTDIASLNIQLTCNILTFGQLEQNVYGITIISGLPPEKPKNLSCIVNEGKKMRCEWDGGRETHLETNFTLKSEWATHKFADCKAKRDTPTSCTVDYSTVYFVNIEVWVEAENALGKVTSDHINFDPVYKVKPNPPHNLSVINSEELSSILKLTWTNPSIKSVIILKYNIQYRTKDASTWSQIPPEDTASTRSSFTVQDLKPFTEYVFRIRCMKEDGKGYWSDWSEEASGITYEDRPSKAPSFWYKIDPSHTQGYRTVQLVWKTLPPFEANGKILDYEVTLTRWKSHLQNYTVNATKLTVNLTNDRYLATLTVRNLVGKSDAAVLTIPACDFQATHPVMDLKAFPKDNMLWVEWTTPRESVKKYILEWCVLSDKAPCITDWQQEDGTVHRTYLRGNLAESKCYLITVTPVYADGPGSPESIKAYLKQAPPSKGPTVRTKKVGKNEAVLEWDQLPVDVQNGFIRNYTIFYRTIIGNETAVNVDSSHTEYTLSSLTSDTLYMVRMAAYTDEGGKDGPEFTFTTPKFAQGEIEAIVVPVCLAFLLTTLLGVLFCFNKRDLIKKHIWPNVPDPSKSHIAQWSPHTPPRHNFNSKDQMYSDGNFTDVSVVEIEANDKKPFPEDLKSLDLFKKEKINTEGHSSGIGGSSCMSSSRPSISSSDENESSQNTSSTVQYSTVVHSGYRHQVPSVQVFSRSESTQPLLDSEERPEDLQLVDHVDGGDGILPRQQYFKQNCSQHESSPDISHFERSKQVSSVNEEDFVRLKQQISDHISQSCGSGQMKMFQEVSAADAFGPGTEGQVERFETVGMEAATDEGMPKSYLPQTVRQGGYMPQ

[8] = molecular target: IL-27 receptor (IL-27RA and gp130) on BHK-mIL-27R cells (mouse) (UniProt O70394); assay: saturation binding of 125I-labeled ligand to BHK-mIL-27R cells, 4 hours on ice, gamma counter
[9] = molecular target: IL-27 receptor (IL-27RA and gp130) on BHK-mIL-27R cells (mouse) (UniProt O70394); assay: saturation binding of 125I-labeled ligand to BHK-mIL-27R cells; average of three studies

Substance “human IL27RA-Fc5 fusion protein (Fc fusion)” has a koff [1] of 0.0018 s⁻¹, a kon [1] of 8.1e+06 M⁻¹ s⁻¹ and a koff [2] of 0.0019 s⁻¹. For the same substance, the kon [2] was 1e+07 M⁻¹ s⁻¹, the IC50 (nM), phospho-STAT3 in mouse spleens, ligand at EC90 [3] was 0.32 nM and the IC50 (nM), phospho-STAT3 in total human PBMCs, ligand at EC90 [3] was 0.95 nM. For the same substance, the IC50 (nM), phospho-STAT3 in mouse spleens, ligand at EC90 [4] was 0.14 nM, the IC50 (nM), phospho-STAT3 in total human PBMCs, ligand at EC90 [4] was 2.97 nM and the IL-2 concentration, 48 hr, hIL-27RA 5 ug/ml + IL-27 [4] was 5780 pg/mL. It also gave an IL-2 concentration, 48 hr, hIL-27RA 10 ug/ml + IL-27 [4] of 5770 pg/mL, an IL-2 concentration, 48 hr, hIL-27RA 10 ug/ml + IL-27 (second row) [4] of 5330 pg/mL and an IL-2 concentration, 72 hr, hIL-27RA 5 ug/ml + IL-27 [4] of 1870 pg/mL. For the same substance, the IL-2 concentration, 72 hr, hIL-27RA 10 ug/ml + IL-27 [4] was 28600 pg/mL, the IL-2 concentration, 72 hr, hIL-27RA 10 ug/ml + IL-27 (second row) [4] was 17500 pg/mL and the block of the ability of mouse IL-27 to inhibit IL-2 production by naive CD4 T cells [4] was 50%.
“IL27RAm(mFc1): extracellular domain of mouse IL27RA fused to a wild type BALB/c mouse gamma2a constant region Fc tag (from UniProt O70394 25-510) (Fc fusion)” was tested, and the IC50 (nM), phospho-STAT3 in mouse spleens, ligand at EC90 [3] was 9.3 nM, the IC50 (nM), phospho-STAT3 in total human PBMCs, ligand at EC90 [3] was 1370 nM and the IC50 (nM), phospho-STAT3 in mouse spleens, ligand at EC90 [4] was 0.18 nM. The IC50 (nM), phospho-STAT3 in total human PBMCs, ligand at EC90 [4] was 4.83 nM, the IL-2 concentration, 48 hr, mIL-27RA 5 ug/ml + IL-27 [4] was 4020 pg/mL and the IL-2 concentration, 48 hr, mIL-27RA 10 ug/ml + IL-27 [4] was 5220 pg/mL. It also gave an IL-2 concentration, 48 hr, mIL-27RA 10 ug/ml + IL-27 (second row) [4] of 4920 pg/mL, an IL-2 concentration, 72 hr, mIL-27RA 5 ug/ml + IL-27 [4] of 5740 pg/mL and an IL-2 concentration, 72 hr, mIL-27RA 10 ug/ml + IL-27 [4] of 6700 pg/mL. The IL-2 concentration, 72 hr, mIL-27RA 10 ug/ml + IL-27 (second row) [4] was 12200 pg/mL, the block of the ability of mouse IL-27 to inhibit IL-2 production by naive CD4 T cells [4] was 50% and the koff [5] was 0.0012 s⁻¹. The kon [5] was 1e+07 M⁻¹ s⁻¹.
“single-chain human IL-27 (amino-terminal peptide tag, EBI3, polypeptide linker, IL-27 p28) (from UniProt Q14213 21-229; Q8NEV9 29-243) (ligand)” gave an EC90 concentration, STAT3 phosphorylation (BIO-PLEX Phospho-Stat3 assay), mouse spleens [6] of 2 nM and an EC90 concentration, STAT3 phosphorylation (BIO-PLEX Phospho-Stat3 assay), total human PBMCs [7] of 2 nM.
With “single-chain mouse IL-27 (FLAG tag, mouse EBI3, 17 amino acid linker, mouse IL-27 p28) (from UniProt O35228 19-228; Q8K3I6 29-234) (ligand)” the EC90 concentration, STAT3 phosphorylation (BIO-PLEX Phospho-Stat3 assay), mouse spleens [6] was 0.2 nM, the EC90 concentration, STAT3 phosphorylation (BIO-PLEX Phospho-Stat3 assay), total human PBMCs [7] was 2 nM and the Kd [8] was 0.9 nM and 1.35 nM and 1.16 nM. For the same substance, the Kd [9] was 1.14 nM.
